Drawing on publication PMC11215335, this text covers stoichiometry N for 1 substance.

In this test the target is single-chain Fv antibody fragment 18B7. Description: not stated; soluble scFv produced in the periplasm of E. coli (Fig. S2A).

Sequence of single-chain Fv antibody fragment 18B7 (scFv) (VH): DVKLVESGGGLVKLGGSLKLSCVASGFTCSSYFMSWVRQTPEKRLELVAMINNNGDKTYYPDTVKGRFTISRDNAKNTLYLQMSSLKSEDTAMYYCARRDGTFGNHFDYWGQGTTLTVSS
Sequence of single-chain Fv antibody fragment 18B7 (scFv) (VL): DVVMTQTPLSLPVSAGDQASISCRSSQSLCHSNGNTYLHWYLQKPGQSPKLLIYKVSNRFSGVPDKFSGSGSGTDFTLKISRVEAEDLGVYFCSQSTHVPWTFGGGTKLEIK

By stoichiometry N is commonly meant a count of units in the complex or per binding partner. For “single-chain Fv antibody fragment 18B7 (scFv)”, the stoichiometry N is 2.
